Consider 17 molecules from patent US20230235004A1 (published 2023).

For experiment [1], the target named is T1, human MAdCAM expressed on cells (human, UniProt Q13477 19-382).
T1 construct: whole, on cells
T1 sequence (looked up): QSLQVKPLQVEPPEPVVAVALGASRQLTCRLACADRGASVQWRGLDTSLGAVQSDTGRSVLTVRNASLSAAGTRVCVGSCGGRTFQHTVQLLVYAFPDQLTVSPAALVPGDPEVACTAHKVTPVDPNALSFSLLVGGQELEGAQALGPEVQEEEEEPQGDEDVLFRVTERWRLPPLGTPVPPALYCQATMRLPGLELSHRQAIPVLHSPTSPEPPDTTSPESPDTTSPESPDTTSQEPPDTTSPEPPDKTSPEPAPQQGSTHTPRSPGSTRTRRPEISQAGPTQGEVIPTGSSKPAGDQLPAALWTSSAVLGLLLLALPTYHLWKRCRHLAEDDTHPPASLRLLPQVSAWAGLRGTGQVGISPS
Nature of the experiment: cell binding.

The target of experiment [2] is T2, mouse MAdCAM expressed on cells (mouse, UniProt Q61826 22-405).
T2 construct: whole, on cells
T2 sequence (looked up): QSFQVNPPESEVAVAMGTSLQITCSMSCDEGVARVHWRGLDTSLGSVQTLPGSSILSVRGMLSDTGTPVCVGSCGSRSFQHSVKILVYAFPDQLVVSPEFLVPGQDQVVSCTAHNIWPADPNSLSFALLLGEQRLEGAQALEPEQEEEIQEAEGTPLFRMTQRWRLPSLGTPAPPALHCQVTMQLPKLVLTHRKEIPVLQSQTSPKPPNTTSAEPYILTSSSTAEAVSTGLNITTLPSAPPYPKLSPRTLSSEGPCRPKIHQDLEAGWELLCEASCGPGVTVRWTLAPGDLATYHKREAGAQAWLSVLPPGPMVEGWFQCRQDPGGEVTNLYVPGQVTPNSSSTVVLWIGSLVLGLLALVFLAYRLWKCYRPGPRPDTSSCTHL
Put plainly: cell binding.

Where a chain is given by its changes, count along the chain named.

B1: MAdCAM antibody Table 1 clone 29 (scFv)
scFv: QVQLVQSGAEVKKPGASVKVSCKASGYTFTSYYMHWVRQAPGQGLEWMAWMNPNSGNTGYAQKFQGRVTMTRDTSTSTVYMELSSLRSEDTAVYYCARDYDFWSGSLGYWGQGTLVTVSSGGGGSGGGGSGGGGSGGGGSDIQMTQSPSSLSASVGDRVTITCRASQGISNYLAWYQQKPGKAPKLLIYAASSLQSGVPSRFSGSGSGTDFTLTISSLQPEDFATYYCQQSYSTPWTFGQGTKVEIK
In the case of B1, the figures for the binding result in experiment [1] and in experiment [2] were “binds” and “no binding”, respectively.

B2: MAdCAM antibody Table 1 clone 40 (scFv)
scFv: QVQLVQSGAEVKKPGASVKVSCKASGYTFTSYGISWVRQAPGQGLEWMGIINPRGGSTIFAQKFQGRVTMTRDTSTSTVYMELSSLRSEDTAVYYCARGTRSSGWYGWFDPWGQGTLVTVSSGGGGSGGGGSGGGGSGGGGSDIQMTQSPSSLSASVGDRVTITCRASQGIGNWLAWYQQKPGKAPKLLIYAASNLETGVPSRFSGSGSGTDFTLTISSLQPEDFATYYCQQIHSYPLTFGGGTKVEIK
On to B2, for which the binding result in experiment [1] is on record as “binds”; in experiment [2], “no binding”.

B3: MAdCAM antibody Table 1 clone 47 (scFv)
scFv: EVQLLESGGGLVQPGGSLRLSCAASGFSFSDYGMHWVRQAPGKGLEWVSAISGSGGSTYYADSVKGRFTISRDNSKNTLYLQMNSLRAEDTAVYYCARDGGWQPAAILDYWGQGTLVTVSSGGGGSGGGGSGGGGSGGGGSDIQMTQSPSSLSASVGDRVTITCRASQGISNNLNWYQQKPGKAPKLLIYDASNLETGVPSRFSGSGSGTDFTLTISSLQPEDFATYYCQQSYSTPLTFGGGTKVEIK
Take B3: the values for the binding result in experiment [1] and in experiment [2] were “binds” and “no binding”, respectively.

B4: MAdCAM antibody Table 1 clone 39 (scFv)
scFv: QVQLVQSGAEVKKPGASVKVSCKASGYTFTSYYMHWVRQAPGQGLEWMGWMNPNSGNTGYAQKFQGRVTMTRDTSTSTVYMELSSLRSEDTAVYYCARDLGYYDSSGYFGAFDIWGQGTTVTVSSGGGGSGGGGSGGGGSGGGGSDIQMTQSPSSLSASVGDRVTITCQSSEDISSSLNWYQQKPGKAPKLLIYAASSLQIGVPSRFSGSGSGTDFTLTISSLQPEDFATYYCQQTYSTPYTFGQGTKVEIK
Take B4: the binding result in experiment [1] is reported as “binds”; in experiment [2] it was “no binding”.

B5: MAdCAM antibody Table 1 clone 37 (scFv)
scFv: QVQLVQSGAEVKKPGASVKVSCKASGYTFSKHFVHWVRQAPGQGLEWMGWMNPNSGNSGYAQKFQGRVTMTRDTSTSTVYMELSSLRSEDTAVYYCARGEGGYYYYGMDVWGQGTLVTVSSGGGGSGGGGSGGGGSGGGGSDIQMTQSPSSLSASVGDRVTITCRASQSISSWLAWYQQKPGKAPKLLIYAASTLQSGVPSRFSGSGSGTDFTLTISSLQPEDFATYYCQQSYSTPWTFGQGTKVEIK
Regarding B5, the binding result in experiment [1] is “binds”; in experiment [2], “no binding”.

B6: MAdCAM antibody Table 1 clone 32 (scFv)
scFv: QVQLVQSGAEVKKPGASVKVSCKASGYTLTDYYMHWVRQAPGQGLEWMGIINPSGGSTSYAQKFQGRVTMTRDTSTSTVYMELSSLRSEDTAVYYCAREEYSSSSGYFDYWGQGTLVTVSSGGGGSGGGGSGGGGSGGGGSDIQMTQSPSSLSASVGDRVTITCRASQGISSWLAWYQQKPGKAPKLLIYAASSLQSGVPSRFSGSGSGTDFTLTISSLQPEDFATYYCQQSYSTPLTFGQGTKVEIK
For B6, the binding result in experiment [1] is listed as “binds”; in experiment [2], “no binding”.

B7: MAdCAM antibody Table 1 clone 45 (scFv)
scFv: EVQLLESGGGLVQPGGSLRLSCAASGFSVSSNYMSWVRQAPGKGLEWVAGISYDGSSKPYADSVKGRFTISRDNSKNTLYLQMNSLRAEDTAVYYCARSRGIAARPLQHWGQGTLVTVSSGGGGSGGGGSGGGGSGGGGSDIVMTQSPDSLAVSLGERATINCKSSQSVLYSSNNKNYLAWYQQKPGQPPKLLIYWASTRQSGVPDRFSGSGSGTDFTLTISSLQAEDVAVYYCHQYYGHPPTFGGGTKVEIK
Take B7: the binding result is “binds” in experiment [1] and “no binding” in experiment [2].

B8: MAdCAM antibody Table 1 clone 46 (scFv)
scFv: B7 scFv with W196Q
B8: the binding result in experiment [1] is given as “binds”; in experiment [2], “no binding”.

B9: MAdCAM antibody Table 1 clone 38 (scFv)
scFv: EVQLLESGGGLVQPGGSLRLSCAASGFTFGSYSMSWVRQAPGKGLEWVSAIGTGGGTYYADSVKGRFTISRDNSKNTLYLQMNSLRAEDTAVYYCAKGTPYYYYYGMDVWGQGTMVTVSSGGGGSGGGGSGGGGSGGGGSDIQMTQSPSSLSASVGDRVTITCRASQPLSNWLAWYQQKPGKAPKLLIYAASSLQSGVPSRFSGSGSGTDFTLTISSLQPEDFATYYCQQAISFPLTFGGGTKVEIK
Take B9: the figures for the binding result in experiment [1] and in experiment [2] were “binds” and “no binding”, respectively.

B10: MAdCAM antibody Table 1 clone 42 (scFv)
scFv: QVQLVQSGAEVKKPGSSVKVSCKASGGTLSRYGVSWVRQAPGQGLEWMGGIIPIFGTTNYAQKFQGRVTITADESTSTAYMELSSLRSEDTAVYYCARDRVYYDSSGYPTWYFDLWGRGTLVTVSSGGGGSGGGGSGGGGSGGGGSEIVMTQSPATLSVSPGERATLSCRASQSVSSSYLAWYQQKPGQAPRLLIYGASTRATGIPARFSGSGSGTEFTLTISSLQSEDFAVYYCQQYGSSPITFGQGTKVEIK
B10: the figures for the binding result in experiment [1] and in experiment [2] were “binds” and “no binding”, respectively.

B11: MAdCAM antibody Table 1 clone 35 (scFv)
scFv: EVQLLESGGGLVQPGGSLRLSCAASGFSFSSYTMNWVRQAPGKGLEWVSFITSSSRTIYYADSVKGRFTISRDNSKNTLYLQMNSLRAEDTAVYYCARDRRGDYGDSWYFDLWGRGTLVTVSSGGGGSGGGGSGGGGSGGGGSEIVMTQSPATLSVSPGERATLSCRASQSVRNYLAWYQQKPGQAPRLLIYGASTRATGIPARFSGSGSGTEFTLTISSLQSEDFAVYYCQQYGSSPLTFGGGTKVEIK
On to B11, for which the binding result in experiment [1] is “binds”; in experiment [2], “no binding”.

B12: MAdCAM antibody Table 1 clone 33 (scFv)
scFv: QVQLVQSGAEVKKPGASVKVSCKASGYTFTSYGISWVRQAPGQGLEWMGWMHPKSGDTGLTQKFQGRVTMTRDTSTSTVYMELSSLRSEDTAVYYCARDTPYYYYGMDVWGQGTTVTVSSGGGGSGGGGSGGGGSGGGGSDIQMTQSPSSLSASVGDRVTITCRASQSISSWLAWYQQKPGKAPKLLIYAASSLQSGVPSRFSGSGSGTDFTLTISSLQPEDFATYYCQQSYSVPITFGQGTKVEIK
With B12, the binding result is reported as “binds” in experiment [1] and “no binding” in experiment [2].

B13: MAdCAM antibody Table 1 clone 44 (scFv)
scFv: EVQLVESGGGLVKPGGSLRLSCAASGFTFSSYWMSWVRQAPGKGLEWVSAIGTGGGTYYAAPVKGRFTISRDDSKNTLYLQMNSLKTEDTAVYYCAREWLVPYYGMDVWGQGTTVTVSSGGGGSGGGGSGGGGSGGGGSDIQMTQSPSSLSASVGDRVTITCRASQSISRWLAWYQQKPGKAPKLLIYGASNLQSGVPSRFSGSGSGTDFTLTISSLQPEDFATYYCQQSYSTPWTFGQGTKVEIK
Consider B13, for which the binding result in experiment [1] is recorded as “binds”; in experiment [2], “no binding”.

B14: MAdCAM antibody Table 1 clone 43 (scFv)
scFv: EVQLLESGGGLVQPGGSLRLSCAASGFTFDDFAMHWVRQAPGKGLEWVSGISGNGDSRYYADSVKGRFTISRDNSKNTLYLQMNSLRAEDTAVYYCARDASYGGNYGMDVWGQGTTVTVSSGGGGSGGGGSGGGGSGGGGSDIQMTQSPSSLSASVGDRVTITCQASQDIRNYLNWYQQKPGKAPKLLIYKASTLESGVPSRFSGSGSGTDFTLTISSLQPEDFATYYCQQANSFPLTFGPGTKVDIK
B14: the binding result was “binds” in experiment [1] and “no binding” in experiment [2].

B15: MAdCAM antibody Table 1 clone 56 (scFv)
scFv: EVQLLESGGGLVQPGGSLRLSCAASGFTFDDYAMHWVRQAPGKGLEWVSAISGGGEDTYYADSVKGRFTISRDNSKNTLYLQMNSLRAEDTAVYYCARDASYGGNYGMDVWGQGTTVTVSSGGGGSGGGGSGGGGSGGGGSDIQMTQSPSSLSASVGDRVTITCQASQDIRNYLNWYQQKPGKAPKLLIYKASSLESGVPSRFSGSGSGTDFTLTISSLQPEDFATYYCQQANSYPVTFGGGTKVEIK
As to B15, the values for the binding result in experiment [1] and in experiment [2] were “binds” and “no binding”, respectively.

B16: MAdCAM antibody Table 1 clone 31 (scFv)
scFv: QVQLVQSGAEVKKPGASVKVSCKASGYTFTSYYMHWVRQAPGQGLEWMGIINPSGGSTSYAQKFQGRVTMTRDTSTSTVYMELSSLRSEDTAVYYCARDTGYSYGRYYYYGMDVWGQGTLVTVSSGGGGSGGGGSGGGGSGGGGSDIQMTQSPSSLSASVGDRVTITCRASQSIGRWLAWYQQKPGKAPKLLIYDASNLQSGVPSRFSGSGSGTDFTLTISSLQPEDFATYYCQQSYSIPITFGQGTKVEIK
For the molecule B16, the figures for the binding result in experiment [1] and in experiment [2] were “binds” and “no binding”, respectively.

B17: MAdCAM antibody Table 1 clone 36 (scFv)
scFv: B16 scFv with S31G, Y32H, L120T, Q245G
B17: the results for the binding result in experiment [1] and in experiment [2] were “binds” and “no binding”, respectively.
